Experimental data from patent US20060258586A1, “Compositions and uses of secreted polypeptide, Zsig98” (priority 2005, published 2006).

How the values were obtained:
[1] = system: cisplatin- or syrup of ipecac-induced emesis; settings: 3 mg/kg i.p.; cited from earlier work
[2] = biological target: the molecule itself; assay: SDS PAGE of refolded synthetic peptide; self-association
strips of ileum = assay: guinea pig ileum organ bath contractility; settings: isolated ileum strips
Method: In another model, male Hartley Guinea pigs at six weeks of age weighing approximately 0.5 kg are euthanized by carbon monoxide. Intestinal tissue is harvested as follows: 2-3 cm longitudinal sections of ileum 10 cm rostral of the cecum, and 2-3 cm longitudinal sections of duodenum, jejunum, and proximal and distal colon.
Tissue is washed in Krebs Ringer's Bicarbonate buffer containing 118.2 mM NaCl, 4.6 mM KCl, 1.2 mm MgS04, 24.8 mM NaHC03, 1.2 mM KH2P04, 2.5 mM CaCl2 and 10 mM glucose. […] Isometric contractions are measured with a force displacement transducer and recorded on a chart recorder using Po-ne-mah Physiology Platform Software. […]
Varying doses of Zsig98 from 1-400 ng/ml are tested for activity on strips of ileum. Muscle contractions are detected immediately after adding Zsig98 protein and are recorded at concentrations as low as 1 ng/ml or 100 picomolar. The EC 50 of this response is measured. […]
In another model, male Hartley Guinea pigs at six weeks of age weighing approximately 0.5 kg are euthanized by carbon monoxide. […] Isometric contractions are measured with a force displacement transducer and recorded on a chart recorder using Po-ne-mah Physiology Platform Software. […] Muscle contractions are detected immediately after adding Zsig98 protein and are recorded at concentrations as low as 1 ng/ml or 100 picomolar. The EC 50 of this response is measured. […]

For COc1ccccc1CN[C@H]1CCCN[C@H]1c1ccccc1 (relative stereo) [(.+−.) cis-3-(2-methoxybenzylamino)-2-phenyl piperidine], the anti-emetic activity [1] is given as “exhibited anti-emetic activity”.

B1: Mature Zsig98, synthetic, made by native ligation and refolded (PEP05014 and PEP05015) (peptide)
chain: EPAGSAVPAQSRPCVDCHAFEFMQRALQDLRKTACSLDARTETLLLQAERRALCACWPAGH
notes: also called zsig98 peptide; synthetic zsig98
B1: binds [2].

B2: Zsig98: secreted polypeptide; mature form amino acids 35 to 95 of SEQ ID NO:2 (SEQ ID NO:18) (protein, listed as Homo sapiens)
chain: B1 chain
modifications: not fully specified
In the case of B2, the “activity in the presence of 5HT” value (strips of ileum) is reported as “a secondary contraction is observed”.
